± gives the standard deviation of the averaged measurements.
How the values were obtained:
[1] = melting temperature (DSF); higher = more thermostable
Outline: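 Values are melting temperatures from differential scanning fluorimetry. Candidate enzymes were expressed in E. coli C41(DE3), purified on nickel beads and freed by SUMO protease cleavage. In sealed PCR plates on a Bio-Rad CFX96, 45 μL enzyme (0 to 0.3 mg/mL) was combined with 5 μL 5X Sypro Orange. Fluorescence was recorded from 25 °C for 250 cycles, rising 0.3 °C per cycle at a ramp of 0.3 °C/s.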

[2] = purified protein yield per well (BCA); higher = higher soluble expression
Outline: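 The measured quantity is purified protein yield per well, determined with the Pierce Rapid Gold BCA kit. Anything below 25 ug (0.1 mg/mL) lies under the detection threshold. Enzymes were expressed in E. coli C41(DE3) in 2 mL autoinduction cultures with 100 µg/mL kanamycin at 37 °C for 2 h, then 18 °C for 40 h, and purified on an OT-2 robot using Ni-charged magnetic beads and SUMO protease release.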

[3] = PET hydrolysis, aromatic products released after 48 h (umol product/mg enzyme); higher = more PET depolymerization activity
Outline: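 Reactions ran in sealed plates without shaking for 48 h at 40 or 60 °C. Each held 3.5 mg amorphous PET film or crystalline PET powder, 450 μL buffer and 5 μg (50 μL) of tagless, SUMO-cleaved, nickel-purified candidate enzyme. Buffers were 50 mM NaCitrate at pH 4.5 or 5.5, 50 mM NaPhosphate at pH 6.5 or 7.5, and glycine at pH 8.5. The supernatant's aromatic product, read at 260 and 280 nm against buffer blanks, gives PET hydrolysis activity per mg enzyme.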

[4] = substrate: aFilm, 40 °C, pH 5.5
[5] = substrate: aFilm, 40 °C, pH 6.5
[6] = substrate: aFilm, 40 °C, pH 7.5
[7] = substrate: aFilm, 40 °C, pH 8.5
[8] = substrate: aFilm, 60 °C, pH 5.5
[9] = substrate: aFilm, 60 °C, pH 6.5
[10] = substrate: aFilm, 60 °C, pH 7.5
[11] = substrate: aFilm, 60 °C, pH 8.5
[12] = substrate: cryPow, 40 °C, pH 5.5
[13] = substrate: cryPow, 40 °C, pH 6.5
[14] = substrate: cryPow, 40 °C, pH 7.5
[15] = substrate: cryPow, 40 °C, pH 8.5
[16] = substrate: cryPow, 60 °C, pH 5.5
[17] = substrate: cryPow, 60 °C, pH 6.5
[18] = substrate: cryPow, 60 °C, pH 7.5
[19] = substrate: cryPow, 60 °C, pH 8.5
[20] = substrate: cryPow, 40 °C, pH 4.5
[21] = substrate: cryPow, 60 °C, pH 4.5

Row | Sequence | melting temperature [1] [C] | purified protein yield per well [2] [µg] | PET hydrolysis [3, 4] | PET hydrolysis [3, 5] | PET hydrolysis [3, 6] | PET hydrolysis [3, 7] | PET hydrolysis [3, 8] | PET hydrolysis [3, 9] | PET hydrolysis [3, 10] | PET hydrolysis [3, 11] | PET hydrolysis [3, 12] | PET hydrolysis [3, 13] | PET hydrolysis [3, 14] | PET hydrolysis [3, 15] | PET hydrolysis [3, 16] | PET hydrolysis [3, 17] | PET hydrolysis [3, 18] | PET hydrolysis [3, 19] | PET hydrolysis ([3]; substrate: aFilm, 40 °C, pH 4.5) | PET hydrolysis ([3]; substrate: aFilm, 60 °C, pH 4.5) | PET hydrolysis [3, 20] | PET hydrolysis [3, 21]
1 | AGFEKGPDPTTASVTADRGSYDIAQVDVPKGSGTGFADGTIYYPKSTADGTFGAVAVIPGFLEPKSAIDWYGPRLASQGFVVMTLDTTSVFDTPDSRGGQLLAALDYLTSKSTVKDRIDPNRLAVVGHSMGGGGTLSAAANRPNLKAAVALAPWHVSAPLTSVKTPTMIFGSDNDFIAPDGTFAKPFYDGISNAPEKAYVRLKNAGHMAYVFPDKRIAEYTLSWLKRYVDDDTRYTQFLCPGPTNESTIAAYKSTCPM [DP093] | 46.6 | 225 | < 3 | < 3 | < 3 | < 3 | < 3 | < 3 | < 3 | < 3 | 4 | 1.5 ± 2.1 | < 3 | < 3 | < 3 | < 3 | < 3 | < 3 | – | – | – | –
2 | AGFERGPDPSTSTLDAARGPFAVAEERVYSWRASGFGGGDIYYPTTTSEGTFGVVAVAPGYTAGRSSMAWLASRIASHGFVVINIDTLTRSDQPASRGRQLLAALDHVTSSSGVRDRVDASRQAVVGHSMGGGGALEAASSRPALQAAVPLTPWNLTKRWSSLQVPTFIVGAENDSVASVRTHAEPFYESLPAALPKAYLELNNASHFAPNTTNSTIGRYTVAWLKRYVDDDLRYSQFLCPPPPPSSAIEEFRATC [DP087] | 44.2 | 208 | < 3 | < 3 | < 3 | < 3 | < 3 | < 3 | < 3 | < 3 | < 3 | < 3 | < 3 | < 3 | < 3 | < 3 | < 3 | < 3 | – | – | – | –
3 | AGNPYERGPSPTAASIAADRGPFATAQVTVPRGNGFGGGVIYYPTDTSQGTFGAIAIAPGFNTAWSYYAWQGPRLASFGFVVIGIETNTLNDYADARATQLLAALDYLVNSSPVRDRVDRDRLAVGGHSMGGGGALLAATQRPSLLTAVGQAPYVPNGNLSGIKSPTIIFAGQADGTVTPQYAQNAYNTIPADVERAYVEIANEGHGFPAGGGGGNSGAFARTMMVWLKLFIDKDTRYAPFLCPTLSNANGISKYMASCPLDPPGGGPTASPTASPTATPSSTPTGPPPATSALKGVASGRCLDVNGASQANGAQAQIWDCNGQNNQQWTTTSAGELRVYGNKCLDVNGGSTADGTSVIIWDCNGQNNQKWRLNSDGTITAVGANKCLDVSGAGTANGTKTQIWTCHGGTNQKWTRV [DP092] | 68.5 | 197 | < 3 | < 3 | < 3 | < 3 | < 3 | < 3 | < 3 | < 3 | 7 ± 1.4 | 13.5 ± 3.5 | 15 | 18.5 ± 2.1 | < 3 | < 3 | < 3 | < 3 | – | – | – | –
4 | AGNPYQRGPDPTLASVAASRGTFATAQVSVPAGNGFNGGTIYYPTDSSQGTWGAVAIVPGYTALFANEEAWMGPWLASFGFVVIGIETNSRTDFDTARGTQLLAALDYLTQKSPVRDRVDSARLGVIGHSMGGGGVVYATEHRPSLKAAVALAPFSPSQDMSTDHVPTMVMGGQNDTVVTPSYLDGLYATMPASTQSDFVQLAGADHVAYTHPNTTEMRLLIPWLKIFLDDDTRYTQFLCPLMDSTGVSAYHSKCPYVPPGGSTSTPTPTPTITPTPPPSGACSATYRTVNSWSGGYQGEVTVTAGDAAINGWTVRWNLGGGQTVTQVWNGTLSTSGSTATVTNASYNGSLQASASTTFGFLANGTPSTPAITCTSP [TEP114] | 41.8 | 407 | < 3 | < 3 | < 3 | – | < 3 | < 3 | < 3 | – | 12.5 ± 0.71 | 24.5 ± 3.5 | < 3 | – | 9 ± 1.4 | 1.5 ± 2.1 | < 3 | – | < 3 | < 3 | 7 | 6 ± 1.4
5 | AGNPYQRGPDPTLASVAASRGTFATAQVSVPPGNGFNGGTIYYPTDTTQGTWGAVAIVPGYTALFANEEAWMGPWLASFGFVVIGIETNSRNDFDTARGTQLLAALDYLTQKSPVRDRVDSARLGVIGHSMGGGGVVYATEHRPSLKAAVALAPFSPSQDMSTDHVPTMVMAGQNDTVVTPSYLDGLYATMPASAQSDFVQLAGADHVAYTHPNTTEMRLLIPWLKIFLDDDTRYTQFLCPLKDSTGVSMYRAKCPYVPPGGPTTSPTPTTTPTPPDGGACSATYRTVNSWSGGYQGEITVTAGGAAIDGWTVRWSLGGGQTVTQVWNGTLSTSGSTASVANASYNGSLQASASTTFGFLANGTPSTPALTCSSP [ESM084] | 43.9 | 119 | – | – | – | – | – | – | – | – | 5 | < 3 | < 3 | – | < 3 | < 3 | < 3 | – | – | – | < 3 | < 3

Reference: the supplement of paper PMC12455559
